Measured values from paper PMC11969672 (Nucleic Acids Research, 2025).

T1: L3MBTL3–SAM (residues 705–773) (UniProt Q96JM7 705-773)
T1 sequence (looked up): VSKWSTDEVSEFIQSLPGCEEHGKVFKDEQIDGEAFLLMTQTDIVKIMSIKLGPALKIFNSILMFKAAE


Assays:
negative-staining EM = target: the molecule itself; experiment: negative-staining EM
[1] = target: T1, L3MBTL3–SAM (residues 705–773); experiment: SEC

Row | binding result [1] | Binder | binding result (negative-staining EM)
1 | – | wild-type full-length SAMD1 (natural protein, human, UniProt Q6SPF0 1-538, looked up) MAGPPALPPPETAAAATTAAAASSSAASPHYQEWILDTIDSLRSRKARPDLERICRMVRRRHGPEPERTRAELEKLIQQRAVLRVSYKGSISYRNAARVQPPRRGATPPAPPRAPRGAPAAAAAAAPPPTPAPPPPPAPVAAAAPARAPRAAAAAATAPPSPGPAQPGPRAQRAAPLAAPPPAPAAPPAVAPPAGPRRAPPPAVAAREPPLPPPPQPPAPPQQQQPPPPQPQPPPEGGAVRAGGAARPVSLREVVRYLGGSGGAGGRLTRGRVQGLLEEEAAARGRLERTRLGALALPRGDRPGRAPPAASARPSRSKRGGEERVLEKEEEEDDDEDEDEEDDVSEGSEVPESDRPAGAQHHQLNGERGPQSAKERVKEWTPCGPHQGQDEGRGPAPGSGTRQVFSMAAMNKEGGTASVATGPDSPSPVPLPPGKPALPGADGTPFGCPPGRKEKPSDPVEWTVMDVVEYFTEAGFPEQATAFQEQEIDGKSLLLMQRTDVLTGLSIRLGPALKIYEHHIKVLQQGHFEDDDPDGFLG | binds
2 | binds | SAMD1–SAM (residues 459–523 with L495R mutation) (domain or fragment, human, UniProt Q6SPF0 459-523, looked up) PVEWTVMDVVEYFTEAGFPEQATAFQEQEIDGKSLLRMQRTDVLTGLSIRLGPALKIYEHHIKVL | –
